Assay results as given in patent US20200024330A1.

Columns and labels:
Test in all cases: cell-based or functional assay
[1] = target: HIV-1 Env of pseudovirus CAAN.A2 (Acute), clade B (HIV-1)
[2] = target: HIV-1 92UG037 envelope glycoprotein (Env) (HIV-1)
[3] = target: HIV-1 MGRM-C-020 Env (HIV-1)
[4] = target: HIV-1 94UG103 envelope glycoprotein (Env) (HIV-1)
[5] = target: HIV-1 Env of isolate SF162 (HIV-1) (UniProt P19549)
[6] = target: HIV-1 93MW959 envelope glycoprotein (Env) on pseudovirus (HIV-1)
[7] = target: HIV-1 Env of isolate MGRM-G-013 (clade G pseudovirus) (HIV-1)
[8] = target: HIV-1 93IN905 Env (HIV-1)
[9] = target: HIV-1 Env of isolate MGRM-AE-003 (HIV-1)
[10] = target: HIV-1 Env of isolate 92UG005 (clade D) (HIV-1)
[11] = target: HIV-1 Env of isolate MGRM-D-018 (clade D) (HIV-1)
[12] = target: HIV-1 APV-17 envelope protein (Env) on pseudovirus (HIV-1)
[13] = target: HIV-1 Env of isolate 92UG005 (HIV-1)
[14] = target: HIV-1 Env of isolate MGRM-A-011 (clade A), on pseudovirus (HIV-1)
[15] = target: HIV-1 Env of isolate MGRM-C-027 (HIV-1)
[16] = target: HIV-1 Env of isolate MGRM-F1-004 (subtype F), on pseudovirus (HIV-1)
[17] = target: HIV-1 Env of isolate MGRM-F1-014 (subtype F), on pseudovirus (HIV-1)
[18] = target: HIV-1 Env of isolate MGRM-D-003 (HIV-1)
[19] = target: HIV-1 Env of isolate MGRM-D-002 (HIV-1)
[20] = target: HIV-1 Env of isolate MGRM-Chronic-B-001 (HIV-1)
[21] = target: HIV-1 Env of isolate MGRM-F1-006 (subtype F), on pseudovirus (HIV-1)
[22] = target: HIV-1 Env of isolate QH0692.42 (HIV-1)
[23] = target: HIV-1 Env of isolate MGRM-C-010 (HIV-1)
[24] = target: HIV-1 Env of isolate VLGCB3 (HIV-1)
[25] = target: HIV-1 Env of isolate MGRM-D-021 (HIV-1)
[26] = target: HIV-1 Env of isolate MGRM-Chronic-B-003 (HIV-1)
[27] = target: HIV-1 JR-CSF Env V182A (HIV-1 (isolate JR-CSF)) (UniProt P20871)
[28] = target: HIV-1 Env of isolate 92WR026 (HIV-1)
[29] = target: HIV-1 JR-CSF Env I165A (HIV-1 (isolate JR-CSF)) (UniProt P20871)
[30] = target: HIV-1 Env of isolate MG RM-A-006 (HIV-1)
[31] = target: HIV-1 Env of isolate MGRM-AE-005 (CRF01_AE), on pseudovirus (HIV-1)
[32] = target: HIV-1 Env of isolate MGRM-AG-003 (CRF_AG), on pseudovirus (HIV-1)
[33] = target: HIV-1 JR-CSF Env N188A (HIV-1 (isolate JR-CSF)) (UniProt P20871)
[34] = target: HIV-1 Env of isolate MGRM-AG-002 (CRF_AG), on pseudovirus (HIV-1)
[35] = target: HIV-1 Env of isolate PVO.4 (HIV-1)
[36] = target: HIV-1 JR-CSF Env E172A (HIV-1 (isolate JR-CSF)) (UniProt P20871)
[37] = target: HIV-1 Env of isolate MGRM-C-017 (HIV-1)

Chain of 1443_C16 (PG16) (TCN-116) (antibody) (VH): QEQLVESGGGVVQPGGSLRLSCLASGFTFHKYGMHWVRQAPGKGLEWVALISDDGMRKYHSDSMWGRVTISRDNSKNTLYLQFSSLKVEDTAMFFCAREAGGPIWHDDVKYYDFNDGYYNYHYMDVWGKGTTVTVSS
Chain of 1443_C16 (PG16) (TCN-116) (antibody) (VL): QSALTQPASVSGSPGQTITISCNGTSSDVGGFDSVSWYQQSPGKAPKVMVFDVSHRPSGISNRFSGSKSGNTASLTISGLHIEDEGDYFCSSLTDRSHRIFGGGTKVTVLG

## b12 (antibody)
[1]
  IC50 (µg/ml), pseudovirus neutralization: > 50 µg/mL
[2]
  IC50 (µg/ml), pseudovirus neutralization: > 50 µg/mL
[3]
  IC50: > 50 mg/L
[4]
  IC50 (µg/ml), pseudovirus neutralization: 6.92 µg/mL
[5]
  IC50 (µg/ml), pseudovirus neutralization: 0.02 µg/mL
[6]
  IC50 (µg/ml), pseudovirus neutralization: > 50 µg/mL
[7]
  IC50 (µg/ml), pseudovirus neutralization: > 50 µg/mL
[8]
  IC50: 21.4 mg/L
[9]
  IC50 (µg/ml), pseudovirus neutralization: > 50 µg/mL
[10]
  IC50 (µg/ml), pseudovirus neutralization: > 50 µg/mL
[11]
  IC50 (µg/ml), pseudovirus neutralization: 1.39 µg/mL
[12]
  neutralization IC50: > 25 mg/L

## 1495_C14 (PGC14) (antibody)
[1]
  IC50 (µg/ml), pseudovirus neutralization: > 50 µg/mL
[2]
  IC50 (µg/ml), pseudovirus neutralization: > 50 µg/mL
[3]
  IC50: > 50 mg/L
[4]
  IC50 (µg/ml), pseudovirus neutralization: > 50 µg/mL
[5]
  IC50 (µg/ml), pseudovirus neutralization: < 0.0025 µg/mL
[6]
  IC50 (µg/ml), pseudovirus neutralization: > 50 µg/mL
[7]
  IC50 (µg/ml), pseudovirus neutralization: > 50 µg/mL
[8]
  IC50: 19 mg/L
[9]
  IC50 (µg/ml), pseudovirus neutralization: > 50 µg/mL
[10]
  IC50 (µg/ml), pseudovirus neutralization: > 50 µg/mL
[11]
  IC50 (µg/ml), pseudovirus neutralization: > 50 µg/mL
[12]
  neutralization IC50: > 50 mg/L

## 5147_N06 (PGT-130) (antibody)
[13]
  IC50: 0.959 mg/L
[14]
  IC50, single-round pseudovirus neutralization: > 50 mg/L
[15]
  IC50: 0.008 mg/L
[16]
  IC50, pseudovirus neutralization: 0.023 mg/L
[17]
  IC50, pseudovirus neutralization: 11.8 mg/L
[18]
  IC50: 0.651 mg/L
[19]
  IC50: 0.869 mg/L
[20]
  IC50: > 50 mg/L
[21]
  IC50, pseudovirus neutralization: > 50 mg/L
[22]
  IC50: > 50 mg/L
[23]
  IC50: > 50 mg/L
[24]
  IC50: 4.6 mg/L
[25]
  IC50: 0.156 mg/L
[26]
  IC50: > 50 mg/L
[27]
  Fold IC50 increase relative to wild-type: 1.2 fold
[10]
  neutralization IC50: 0.474 mg/L
  neutralization IC80: > 10 mg/L
  neutralization IC90: > 10 mg/L
  neutralization IC95: > 10 mg/L
[28]
  neutralization IC50: 0.037 mg/L
[11]
  neutralization IC50: 0.0378 mg/L
  neutralization IC80: 0.289 mg/L
  neutralization IC90: 2.31 mg/L
  neutralization IC95: > 10 mg/L
[29]
  Fold IC50 increase relative to wild-type: 3.2 fold
[30]
  neutralization IC50: > 50 mg/L
[31]
  IC50, single-round pseudovirus neutralization: 0.006 mg/L
[32]
  IC50, single-round pseudovirus neutralization: 0.041 mg/L
[33]
  Fold IC50 increase relative to wild-type: 1 fold
[34]
  IC50, single-round pseudovirus neutralization: > 50 mg/L
[35]
  IC50: 5.17 mg/L
[36]
  Fold IC50 increase relative to wild-type: 1.4 fold
[37]
  IC50: > 50 mg/L

## 2F5 (antibody)
[1]
  IC50 (µg/ml), pseudovirus neutralization: 23.1 µg/mL
[2]
  IC50 (µg/ml), pseudovirus neutralization: 3.24 µg/mL
[3]
  IC50: > 50 mg/L
[4]
  IC50 (µg/ml), pseudovirus neutralization: 1.92 µg/mL
[5]
  IC50 (µg/ml), pseudovirus neutralization: 2.52 µg/mL
[6]
  IC50 (µg/ml), pseudovirus neutralization: > 50 µg/mL
[7]
  IC50 (µg/ml), pseudovirus neutralization: 0.59 µg/mL
[8]
  IC50: > 50 mg/L
[9]
  IC50 (µg/ml), pseudovirus neutralization: 0.24 µg/mL
[10]
  IC50 (µg/ml), pseudovirus neutralization: 8.61 µg/mL
[11]
  IC50 (µg/ml), pseudovirus neutralization: 4.05 µg/mL
[12]
  neutralization IC50: 2 mg/L

## 2G12 (antibody)
[1]
  IC50 (µg/ml), pseudovirus neutralization: > 50 µg/mL
[2]
  IC50 (µg/ml), pseudovirus neutralization: 45.2 µg/mL
[3]
  IC50: 18.6 mg/L
[4]
  IC50 (µg/ml), pseudovirus neutralization: 48.1 µg/mL
[5]
  IC50 (µg/ml), pseudovirus neutralization: 1.67 µg/mL
[6]
  IC50 (µg/ml), pseudovirus neutralization: > 50 µg/mL
[7]
  IC50 (µg/ml), pseudovirus neutralization: > 50 µg/mL
[8]
  IC50: > 50 mg/L
[9]
  IC50 (µg/ml), pseudovirus neutralization: > 50 µg/mL
[10]
  IC50 (µg/ml), pseudovirus neutralization: > 50 µg/mL
[11]
  IC50 (µg/ml), pseudovirus neutralization: 0.12 µg/mL
[12]
  neutralization IC50: > 50 mg/L

## 1443_C16 (PG16) (TCN-116) (antibody)
[1]
  IC50 (µg/ml), pseudovirus neutralization: 8.83 µg/mL
[2]
  IC50 (µg/ml), pseudovirus neutralization: 0.01 µg/mL
[3]
  IC50: > 50 mg/L
[4]
  IC50 (µg/ml), pseudovirus neutralization: 0.04 µg/mL
[5]
  IC50 (µg/ml), pseudovirus neutralization: > 50 µg/mL
[6]
  IC50 (µg/ml), pseudovirus neutralization: 0.007 µg/mL
[7]
  IC50 (µg/ml), pseudovirus neutralization: > 50 µg/mL
[8]
  IC50: 0.25 mg/L
[9]
  IC50 (µg/ml), pseudovirus neutralization: 0.03 µg/mL
[10]
  IC50 (µg/ml), pseudovirus neutralization: > 50 µg/mL
[11]
  IC50 (µg/ml), pseudovirus neutralization: 0.004 µg/mL
[12]
  neutralization IC50: > 50 mg/L
[35]
  IC50, pseudovirus neutralization (TZM-bl): 12.3 mg/L

## 5114_A19 (PGT-128) (antibody)
[13]
  IC50: 0.018 mg/L
[14]
  IC50, single-round pseudovirus neutralization: > 50 mg/L
[15]
  IC50: 0.081 mg/L
[16]
  IC50, pseudovirus neutralization: 0.027 mg/L
[17]
  IC50, pseudovirus neutralization: 0.277 mg/L
[18]
  IC50: 0.019 mg/L
[19]
  IC50: 0.011 mg/L
[20]
  IC50: > 50 mg/L
[21]
  IC50, pseudovirus neutralization: 0.763 mg/L
[22]
  IC50: 0.029 mg/L
[23]
  IC50: > 50 mg/L
[24]
  IC50: 0.012 mg/L
[25]
  IC50: 0.014 mg/L
[26]
  IC50: 0.007 mg/L
[27]
  Fold IC50 increase relative to wild-type: 1.2 fold
[28]
  neutralization IC50: 0.01 mg/L
[29]
  Fold IC50 increase relative to wild-type: 2.1 fold
[30]
  neutralization IC50: > 50 mg/L
[31]
  IC50, single-round pseudovirus neutralization: 0.032 mg/L
[32]
  IC50, single-round pseudovirus neutralization: 34.8 mg/L
[33]
  Fold IC50 increase relative to wild-type: 1.3 fold
[34]
  IC50, single-round pseudovirus neutralization: 4.99 mg/L
[35]
  IC50: 0.005 mg/L
[36]
  Fold IC50 increase relative to wild-type: 2.5 fold
[37]
  IC50: 1.06 mg/L

## 4E10 (antibody)
[1]
  IC50 (µg/ml), pseudovirus neutralization: 17.9 µg/mL
[2]
  IC50 (µg/ml), pseudovirus neutralization: 8.84 µg/mL
[3]
  IC50: 2.8 mg/L
[4]
  IC50 (µg/ml), pseudovirus neutralization: 4.97 µg/mL
[5]
  IC50 (µg/ml), pseudovirus neutralization: 4.28 µg/mL
[6]
  IC50 (µg/ml), pseudovirus neutralization: 4.55 µg/mL
[7]
  IC50 (µg/ml), pseudovirus neutralization: 1.15 µg/mL
[8]
  IC50: 1.26 mg/L
[9]
  IC50 (µg/ml), pseudovirus neutralization: 0.34 µg/mL
[10]
  IC50 (µg/ml), pseudovirus neutralization: 7.46 µg/mL
[11]
  IC50 (µg/ml), pseudovirus neutralization: 3.9 µg/mL
[12]
  neutralization IC50: 5.1 mg/L
